From the supplement of paper PMC9112550, “Optimization of the antimicrobial peptide Bac7 by deep mutational scanning” (BMC Biology, 2022) come the findings set out here.

This data set concerns Escherichia coli TOP10. The data set is described as follows: shrunken log2 fold change of peptide-encoding DNA abundance (4.5 h post-induction vs induction); higher = less antimicrobial activity (less host growth inhibition). Conditions: time post-induction: 4.5 h; library: site-saturation at positions 5, 18, 19, 20.
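Note: peptides expressed intracellularly from a pBAD plasmid library in pooled LB shake-flask culture, induced with 0.3% L-arabinose, DNA abundance read by NGS, three biological replicates, DESeq2 with apeglm shrinkage.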

With RRIRKRPPRLPRPRPRPYDFPRP, the “shrunken log2 fold change” value amounted to 0.176. To RRIRNRPPRLPRPRPRPLQDPRP belongs -0.247; to RRIRRRPPRLPRPRPRPHQWPRP, 0.144. Consider RRIRYRPPRLPRPRPRPLPSPRP, for which the “shrunken log2 fold change” value is -0.14.

As to RRIRLRPPRLPRPRPRPDIRPRP, the “shrunken log2 fold change” value is -0.15. For the sequence RRIRVRPPRLPRPRPRPTMHPRP, the “shrunken log2 fold change” value is -0.103. Take RRIRYRPPRLPRPRPRPPALPRP: the “shrunken log2 fold change” value is -0.1. Regarding RRIRARPPRLPRPRPRPWRQPRP, the “shrunken log2 fold change” value amounted to 0.0426. As for RRIRRRPPRLPRPRPRPIMYPRP, the “shrunken log2 fold change” value is -0.186. Take RRIRHRPPRLPRPRPRPKPWPRP: the “shrunken log2 fold change” value is 0.528. As to RRIRTRPPRLPRPRPRPMVVPRP, the “shrunken log2 fold change” value came to 0.0636. For RRIRPRPPRLPRPRPRPEAYPRP, the “shrunken log2 fold change” value turned out to be 0.00183.

For RRIRRRPPRLPRPRPRPGWNPRP, the “shrunken log2 fold change” value is 0.257. As to RRIRDRPPRLPRPRPRPWFPPRP, the “shrunken log2 fold change” value is -0.234. With RRIRYRPPRLPRPRPRPTHEPRP, the “shrunken log2 fold change” value stood at 0.0198. For RRIRKRPPRLPRPRPRPHTAPRP, the “shrunken log2 fold change” value is 0.239. Turning to RRIRRRPPRLPRPRPRPWGKPRP, the “shrunken log2 fold change” value is -0.0259.

RRIRHRPPRLPRPRPRPMIRPRP: the “shrunken log2 fold change” value is -0.173.

On to RRIRLRPPRLPRPRPRPTKSPRP, for which the “shrunken log2 fold change” value was 0.127. RRIRNRPPRLPRPRPRPGLTPRP: the “shrunken log2 fold change” value was -0.0698. With RRIRWRPPRLPRPRPRPPTNPRP, the “shrunken log2 fold change” value came to 0.433. For RRIRDRPPRLPRPRPRPRMMPRP, the “shrunken log2 fold change” value came to 0.312. Regarding RRIRVRPPRLPRPRPRPDIPPRP, the “shrunken log2 fold change” value was -0.263. Consider RRIRQRPPRLPRPRPRPHELPRP, for which the “shrunken log2 fold change” value was -0.00752.

Regarding RRIRYRPPRLPRPRPRPVGYPRP, the “shrunken log2 fold change” value was -0.152. On to RRIRQRPPRLPRPRPRPTYQPRP, for which the “shrunken log2 fold change” value is -0.109.

In the case of RRIRSRPPRLPRPRPRPATDPRP, the “shrunken log2 fold change” value was 0.157. For RRIRVRPPRLPRPRPRPMTDPRP, the “shrunken log2 fold change” value amounted to 0.168. As to RRIRMRPPRLPRPRPRPGTAPRP, the “shrunken log2 fold change” value came out at 0.793. RRIRDRPPRLPRPRPRPIEAPRP: the “shrunken log2 fold change” value stood at 0.184. On to RRIRDRPPRLPRPRPRPQFDPRP, for which the “shrunken log2 fold change” value is -0.0102. Regarding RRIRLRPPRLPRPRPRPFPMPRP, the “shrunken log2 fold change” value is -0.312. As to RRIRNRPPRLPRPRPRPKQLPRP, the “shrunken log2 fold change” value is 0.252. Take RRIRCRPPRLPRPRPRPHSMPRP: the “shrunken log2 fold change” value is -0.718. With RRIRTRPPRLPRPRPRPCCCPRP, the “shrunken log2 fold change” value was determined as 0.276.

Consider RRIRYRPPRLPRPRPRPCKLPRP, for which the “shrunken log2 fold change” value was -0.698.

RRIRQRPPRLPRPRPRPKFIPRP: the “shrunken log2 fold change” value is -0.0852. As for RRIRHRPPRLPRPRPRPTTVPRP, the “shrunken log2 fold change” value was -0.0474. To RRIRGRPPRLPRPRPRPCWNPRP belongs 0.183. Regarding RRIRCRPPRLPRPRPRPSISPRP, the “shrunken log2 fold change” value is -0.136. On to RRIRIRPPRLPRPRPRPKQRPRP, for which the “shrunken log2 fold change” value worked out at 0.0202. Turning to RRIRNRPPRLPRPRPRPLHTPRP, the “shrunken log2 fold change” value was determined as 0.0669. Turning to RRIRVRPPRLPRPRPRPIKKPRP, the “shrunken log2 fold change” value was -0.015. Then RRIRIRPPRLPRPRPRPPMRPRP, with 0.591. For the sequence RRIRYRPPRLPRPRPRPYNKPRP, the “shrunken log2 fold change” value is -0.734. As to RRIRVRPPRLPRPRPRPPFRPRP, the “shrunken log2 fold change” value turned out to be 0.421. As to RRIRSRPPRLPRPRPRPQESPRP, the “shrunken log2 fold change” value was -0.0242. RRIRDRPPRLPRPRPRPQSPPRP: the “shrunken log2 fold change” value turned out to be 0.0974.

For RRIRPRPPRLPRPRPRPPHSPRP, the “shrunken log2 fold change” value turned out to be 1.31. As to RRIRERPPRLPRPRPRPSKYPRP, the “shrunken log2 fold change” value is -1.02. With RRIRVRPPRLPRPRPRPWWRPRP, the “shrunken log2 fold change” value is 1.25.

Take RRIRGRPPRLPRPRPRPFSGPRP: the “shrunken log2 fold change” value was -0.325. Take RRIRDRPPRLPRPRPRPIKYPRP: the “shrunken log2 fold change” value was -0.206. To RRIRWRPPRLPRPRPRPQYEPRP belongs 0.0857; to RRIRYRPPRLPRPRPRPCSPPRP, -0.0146; to RRIRHRPPRLPRPRPRPIYWPRP, -0.181. For the sequence RRIRDRPPRLPRPRPRPSAIPRP, the “shrunken log2 fold change” value was determined as 0.0484.

With RRIRARPPRLPRPRPRPNLDPRP, the “shrunken log2 fold change” value is -0.152. Turning to RRIRHRPPRLPRPRPRPRYAPRP, the “shrunken log2 fold change” value is -0.0694. Take RRIRNRPPRLPRPRPRPPAAPRP: the “shrunken log2 fold change” value was 0.676.

As to RRIRVRPPRLPRPRPRPRALPRP, the “shrunken log2 fold change” value is 0.307. With RRIRHRPPRLPRPRPRPRYVPRP, the “shrunken log2 fold change” value was -0.585.

As to RRIRARPPRLPRPRPRPPPVPRP, the “shrunken log2 fold change” value was determined as 1.04. On to RRIRGRPPRLPRPRPRPAPAPRP, for which the “shrunken log2 fold change” value stood at 1.14. Then RRIRERPPRLPRPRPRPMTMPRP, with -0.136; and RRIRERPPRLPRPRPRPGMAPRP, with 0.188. For RRIRSRPPRLPRPRPRPKCFPRP, the “shrunken log2 fold change” value was determined as 0.318. In the case of RRIRRRPPRLPRPRPRPEFCPRP, the “shrunken log2 fold change” value worked out at 0.579. On to RRIRCRPPRLPRPRPRPVSAPRP, for which the “shrunken log2 fold change” value came out at 0.15. To RRIRPRPPRLPRPRPRPRMEPRP belongs 0.197; to RRIRQRPPRLPRPRPRPFFAPRP, 0.414; to RRIRVRPPRLPRPRPRPFQQPRP, -0.014. To RRIRQRPPRLPRPRPRPADWPRP belongs 0.258; to RRIRNRPPRLPRPRPRPWPPPRP, 0.692; to RRIRTRPPRLPRPRPRPCGSPRP, 0.00855. On to RRIRNRPPRLPRPRPRPVATPRP, for which the “shrunken log2 fold change” value is -0.0503.

For RRIRWRPPRLPRPRPRPRECPRP, the “shrunken log2 fold change” value stood at 0.605. As for RRIRRRPPRLPRPRPRPRINPRP, the “shrunken log2 fold change” value is 0.125. On to RRIRCRPPRLPRPRPRPERPPRP, for which the “shrunken log2 fold change” value stood at 0.777. Regarding RRIRWRPPRLPRPRPRPWRSPRP, the “shrunken log2 fold change” value was determined as 0.49. Consider RRIRRRPPRLPRPRPRPEDVPRP, for which the “shrunken log2 fold change” value was -0.0417. On to RRIRGRPPRLPRPRPRPFKIPRP, for which the “shrunken log2 fold change” value was 0.0381. Consider RRIRSRPPRLPRPRPRPTTGPRP, for which the “shrunken log2 fold change” value came to 0.0655.

As for RRIRWRPPRLPRPRPRPHTWPRP, the “shrunken log2 fold change” value is -0.134. Take RRIRTRPPRLPRPRPRPSEQPRP: the “shrunken log2 fold change” value is 0.0636.

Regarding RRIRLRPPRLPRPRPRPVSWPRP, the “shrunken log2 fold change” value was found to be 0.22. With RRIRLRPPRLPRPRPRPICNPRP, the “shrunken log2 fold change” value was -0.243.

With RRIRCRPPRLPRPRPRPFARPRP, the “shrunken log2 fold change” value worked out at 0.0264. Consider RRIRRRPPRLPRPRPRPYEYPRP, for which the “shrunken log2 fold change” value was -0.206.

RRIRDRPPRLPRPRPRPAWTPRP: the “shrunken log2 fold change” value is -0.0791. For RRIRVRPPRLPRPRPRPHWSPRP, the “shrunken log2 fold change” value was -0.191. To RRIRQRPPRLPRPRPRPQTTPRP belongs -0.0245; to RRIRNRPPRLPRPRPRPSMMPRP, -0.589. As for RRIRTRPPRLPRPRPRPFCHPRP, the “shrunken log2 fold change” value came out at 0.0326.

Regarding RRIRWRPPRLPRPRPRPTFDPRP, the “shrunken log2 fold change” value was 0.273.

As to RRIRQRPPRLPRPRPRPRKKPRP, the “shrunken log2 fold change” value is -0.0181. Then RRIRCRPPRLPRPRPRPWHHPRP, with -1.14; and RRIRPRPPRLPRPRPRPKCEPRP, with -0.187. Turning to RRIRGRPPRLPRPRPRPFAMPRP, the “shrunken log2 fold change” value worked out at 0.68.

RRIRERPPRLPRPRPRPATSPRP: the “shrunken log2 fold change” value was 0.0131. For RRIRIRPPRLPRPRPRPKQHPRP, the “shrunken log2 fold change” value was -0.307. In the case of RRIRERPPRLPRPRPRPEWNPRP, the “shrunken log2 fold change” value is -0.197. On to RRIRGRPPRLPRPRPRPGVEPRP, for which the “shrunken log2 fold change” value was 1.46. As for RRIRERPPRLPRPRPRPPNNPRP, the “shrunken log2 fold change” value was -0.186. In the case of RRIRKRPPRLPRPRPRPSSFPRP, the “shrunken log2 fold change” value came to 0.0223. Regarding RRIRNRPPRLPRPRPRPRPPPRP, the “shrunken log2 fold change” value was 1.26.

For RRIRNRPPRLPRPRPRPWKKPRP, the “shrunken log2 fold change” value was -0.0178. To RRIRKRPPRLPRPRPRPIYEPRP belongs -0.0432; to RRIRSRPPRLPRPRPRPQQLPRP, -0.0917; to RRIRARPPRLPRPRPRPAIVPRP, -0.123. In the case of RRIRARPPRLPRPRPRPIERPRP, the “shrunken log2 fold change” value was determined as 0.047. In the case of RRIRRRPPRLPRPRPRPDWKPRP, the “shrunken log2 fold change” value stood at 0.192. Take RRIRSRPPRLPRPRPRPIANPRP: the “shrunken log2 fold change” value was -0.0897. Take RRIRVRPPRLPRPRPRPECVPRP: the “shrunken log2 fold change” value was 0.399. In the case of RRIRVRPPRLPRPRPRPRWGPRP, the “shrunken log2 fold change” value amounted to 0.157. Take RRIRERPPRLPRPRPRPSTCPRP: the “shrunken log2 fold change” value was -0.324. With RRIRQRPPRLPRPRPRPKGKPRP, the “shrunken log2 fold change” value was -0.155. Take RRIRSRPPRLPRPRPRPSLEPRP: the “shrunken log2 fold change” value stood at 0.0147. Turning to RRIRFRPPRLPRPRPRPCTTPRP, the “shrunken log2 fold change” value was -0.381. In the case of RRIRHRPPRLPRPRPRPQAFPRP, the “shrunken log2 fold change” value is -0.0247. Take RRIRKRPPRLPRPRPRPPGLPRP: the “shrunken log2 fold change” value is 0.308. RRIRPRPPRLPRPRPRPSLVPRP: the “shrunken log2 fold change” value was -0.222. Turning to RRIRTRPPRLPRPRPRPVSLPRP, the “shrunken log2 fold change” value was -0.298. RRIRRRPPRLPRPRPRPQALPRP: the “shrunken log2 fold change” value stood at 0.128. To RRIRNRPPRLPRPRPRPKPFPRP belongs -0.104.
